Article PMC6298560, “Staphylococcus aureus Cas9 is a multiple-turnover enzyme”

T1: SauCas9 (Staphylococcus aureus, UniProt J7RUA5 1-1053)
T1 sequence: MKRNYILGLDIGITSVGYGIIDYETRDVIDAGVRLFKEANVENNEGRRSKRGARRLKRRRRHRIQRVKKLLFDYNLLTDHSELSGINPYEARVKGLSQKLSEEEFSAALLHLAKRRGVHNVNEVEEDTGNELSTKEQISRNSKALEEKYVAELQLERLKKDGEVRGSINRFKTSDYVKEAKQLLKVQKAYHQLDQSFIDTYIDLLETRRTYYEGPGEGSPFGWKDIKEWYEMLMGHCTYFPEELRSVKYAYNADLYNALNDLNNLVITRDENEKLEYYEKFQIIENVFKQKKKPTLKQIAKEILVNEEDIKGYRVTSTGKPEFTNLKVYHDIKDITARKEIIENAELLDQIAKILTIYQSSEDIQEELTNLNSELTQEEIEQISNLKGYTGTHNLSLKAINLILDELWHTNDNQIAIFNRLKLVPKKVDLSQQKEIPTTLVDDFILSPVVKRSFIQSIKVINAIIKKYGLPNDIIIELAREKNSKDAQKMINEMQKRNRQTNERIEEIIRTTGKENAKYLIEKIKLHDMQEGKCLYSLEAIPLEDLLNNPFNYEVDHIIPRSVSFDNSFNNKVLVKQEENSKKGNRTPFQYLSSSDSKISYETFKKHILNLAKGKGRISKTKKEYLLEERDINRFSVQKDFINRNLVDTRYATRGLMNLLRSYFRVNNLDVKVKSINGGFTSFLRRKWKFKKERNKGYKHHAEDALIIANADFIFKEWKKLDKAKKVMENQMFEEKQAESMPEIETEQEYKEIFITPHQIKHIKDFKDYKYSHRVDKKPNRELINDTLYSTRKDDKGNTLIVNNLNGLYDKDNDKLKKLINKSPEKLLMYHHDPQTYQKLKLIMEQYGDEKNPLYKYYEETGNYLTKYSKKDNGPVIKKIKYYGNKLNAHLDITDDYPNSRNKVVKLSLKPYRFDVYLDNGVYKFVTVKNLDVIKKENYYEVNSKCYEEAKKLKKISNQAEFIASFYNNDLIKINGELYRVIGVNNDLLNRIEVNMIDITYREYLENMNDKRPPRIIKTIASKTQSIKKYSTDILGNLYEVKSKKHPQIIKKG


Legend:
SauCas9 = target: T1, SauCas9; experiment: EMSA; 10 mM Mg2+; EMSA: 1x NEBuffer 3.1 (100 mM NaCl, 50 mM Tris-HCl, 10 mM MgCl2, 100 ug/ml BSA, pH 7.9 at 25 C), 50 pM sgRNA, 40 min at 22 C, 6% native TBE gel in cold room; conditions: protein: recombinant; label: 5'-32P; single guide RNA, GAAA tetraloop, two 3' stem-loops
SpyCas9 = SpyCas9 (Streptococcus pyogenes, UniProt Q99ZW2 1-1368); experiment: as above; conditions: protein: recombinant; label: 5'-32P; single guide RNA, GAAA tetraloop, three 3' stem-loops
SpyCas9, sequence (Q99ZW2 whole entry): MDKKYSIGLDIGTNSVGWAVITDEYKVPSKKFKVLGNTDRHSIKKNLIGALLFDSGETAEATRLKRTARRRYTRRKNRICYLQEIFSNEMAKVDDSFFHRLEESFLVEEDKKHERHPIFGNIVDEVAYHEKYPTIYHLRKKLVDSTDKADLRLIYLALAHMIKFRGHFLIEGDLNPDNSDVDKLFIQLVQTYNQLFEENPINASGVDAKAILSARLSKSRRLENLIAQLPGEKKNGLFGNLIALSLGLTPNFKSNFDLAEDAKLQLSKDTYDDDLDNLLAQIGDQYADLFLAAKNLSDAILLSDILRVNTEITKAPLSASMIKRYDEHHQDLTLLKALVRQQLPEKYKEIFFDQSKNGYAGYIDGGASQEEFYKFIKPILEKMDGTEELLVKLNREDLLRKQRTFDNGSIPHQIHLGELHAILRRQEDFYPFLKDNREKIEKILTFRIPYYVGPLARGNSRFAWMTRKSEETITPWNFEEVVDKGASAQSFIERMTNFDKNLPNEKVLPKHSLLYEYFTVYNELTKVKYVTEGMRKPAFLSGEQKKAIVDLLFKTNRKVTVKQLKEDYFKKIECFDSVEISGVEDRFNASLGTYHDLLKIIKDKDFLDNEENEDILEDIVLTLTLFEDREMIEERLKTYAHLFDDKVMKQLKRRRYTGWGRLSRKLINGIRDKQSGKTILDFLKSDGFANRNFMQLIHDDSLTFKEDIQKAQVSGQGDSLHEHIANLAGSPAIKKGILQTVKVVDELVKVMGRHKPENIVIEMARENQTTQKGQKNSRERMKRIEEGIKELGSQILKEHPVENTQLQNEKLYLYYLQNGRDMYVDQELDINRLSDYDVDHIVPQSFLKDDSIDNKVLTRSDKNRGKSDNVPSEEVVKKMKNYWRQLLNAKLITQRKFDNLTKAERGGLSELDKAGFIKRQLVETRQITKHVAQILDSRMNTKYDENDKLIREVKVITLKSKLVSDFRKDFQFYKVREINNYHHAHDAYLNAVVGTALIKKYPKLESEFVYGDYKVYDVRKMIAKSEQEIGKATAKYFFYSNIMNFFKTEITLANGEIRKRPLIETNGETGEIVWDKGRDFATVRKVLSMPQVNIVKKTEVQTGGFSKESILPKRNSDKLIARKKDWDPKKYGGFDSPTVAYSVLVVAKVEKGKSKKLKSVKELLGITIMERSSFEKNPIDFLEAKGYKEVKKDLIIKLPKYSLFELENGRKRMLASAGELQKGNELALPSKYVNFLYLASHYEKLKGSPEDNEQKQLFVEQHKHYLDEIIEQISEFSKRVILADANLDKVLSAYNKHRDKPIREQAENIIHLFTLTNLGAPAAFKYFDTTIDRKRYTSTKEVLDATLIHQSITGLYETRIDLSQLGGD

Row | Binder | Kd (SauCas9) | Kd (SpyCas9)
1 | S. aureus sgRNA (structured_RNA) RNA: GUGAAAGUUAAUCGAACUGUGUUUUAGUACUCUGGAAACAGAAUCUACUAAAACAAGGCAAAAUGCCGUGUUUAUCUCGUCAACUUGUUGGCGAGAU | 3.4 nM | 
2 | S. pyogenes sgRNA (structured_RNA) RNA: GUGAAAGUUAAUCGAACUGUGUUUUAGAGCUAGAAAUAGCAAGUUAAAAUAAGGCUAGUCCGUUAUCAACUUGAAAAAGUGGCACCGAGUCGGUGCUUUU |  | 0.29 ± 0.08 nM
